{
  "source": "paper doi:10.1101/2024.11.13.623448",
  "key": {"[1]": {"target": "nucleosome core particle: Cse4, H2A, H2B, H4 histone octamer wrapped with Widom 601 DNA (S. cerevisiae | K. lactis) (UniProt P36012)", "experiment": "optical trap bead-microtubule binding assay; His6-NCPs (40 nM) held on polystyrene beads by anti-His6 antibody; 10 nM OA or 20 nM Mif2, 10 nM 2D-MIND, 10 nM Ndc80c, 5 nM Dam1c free in solution; bead brought to the dynamic plus end of a surface-anchored microtubule and released from the trap; 1x BRB80, 1 mM GTP, 16 uM tubulin, room temperature"}, "[2]": {"target": "nucleosome core particle: Cse4, H2A, H2B, H4 histone octamer wrapped with chimeric centromeric DNA (CCEN) (S. cerevisiae | K. lactis) (UniProt P36012)", "experiment": "optical trap bead-microtubule binding assay; His6-NCPs (40 nM) held on polystyrene beads by anti-His6 antibody; 10 nM OA or 20 nM Mif2, 10 nM 2D-MIND, 10 nM Ndc80c, 5 nM Dam1c free in solution; bead brought to the dynamic plus end of a surface-anchored microtubule and released from the trap; 1x BRB80, 1 mM GTP, 16 uM tubulin, room temperature"}},
  "data": [
    {"substance": "Mif2-linker-(27-392)MBP (from UniProt P35201 1-549) (natural protein)", "values": [
      {"measurement": "percent of beads that bound microtubules", "setting": "[1]", "value": "> 78", "unit": "%"},
      {"measurement": "percent of beads that bound microtubules", "setting": "[2]", "value": "> 78", "unit": "%"}
    ]}
  ]
}
